B1: Peptide 1 (P1), NNQKIVNLKEKVAQLEA (peptide)
peptide: NNQKIVNLKEKVAQLEA
notes: Synthetic peptide (Sigma-Genosys, 50% purity)

Legend:
[1] = target: αMβ2 (Mac-1; CD11b/CD18) on human peripheral blood monocytes (human, UniProt P11215 17-1152; P05107 23-769); test: inferred from peptide blocking of monocyte/A375 adherence under flow
Protocol: Pre-treatment of tumor cells with P1 and monocytes with sFn or tumor cells with sFn and monocytes with P2 inhibited adherence to a similar level to that of sFn treatment of both cells (P>0.05 to fibrin; n=5 in each case).
Peptide Blocking of Cellular Adherence: After fluorescence labeling of each cell type, stock peptides were added to both confluent coverslips and/or 1 milliliter suspensions of monocytes (P1 and P2) and/or sFn solution (P3 and P4) for a final treatment concentration of 4 mM (4 uL added to 1 mL suspension). Cells were treated with peptides for 20 minutes at room temperature, followed directly by washing of cells (by centrifugation and resuspension—monocytes, or perfusion with RPMI 1640 for 10 min—tumor cells). For sFn peptide treatment, peptides remained in the sFn solution during incubation. Monocyte adherence to tumor cells under flow conditions was then performed as described above.

[2] = target: T1, CD54 (ICAM-1) on A375 human melanoma cells (human, UniProt P05362 28-532); test: inferred from peptide blocking of monocyte/tumor cell adherence
T1 construct: whole, on cells; also called intercellular adhesion molecule-1
T1 sequence (P05362 28-532): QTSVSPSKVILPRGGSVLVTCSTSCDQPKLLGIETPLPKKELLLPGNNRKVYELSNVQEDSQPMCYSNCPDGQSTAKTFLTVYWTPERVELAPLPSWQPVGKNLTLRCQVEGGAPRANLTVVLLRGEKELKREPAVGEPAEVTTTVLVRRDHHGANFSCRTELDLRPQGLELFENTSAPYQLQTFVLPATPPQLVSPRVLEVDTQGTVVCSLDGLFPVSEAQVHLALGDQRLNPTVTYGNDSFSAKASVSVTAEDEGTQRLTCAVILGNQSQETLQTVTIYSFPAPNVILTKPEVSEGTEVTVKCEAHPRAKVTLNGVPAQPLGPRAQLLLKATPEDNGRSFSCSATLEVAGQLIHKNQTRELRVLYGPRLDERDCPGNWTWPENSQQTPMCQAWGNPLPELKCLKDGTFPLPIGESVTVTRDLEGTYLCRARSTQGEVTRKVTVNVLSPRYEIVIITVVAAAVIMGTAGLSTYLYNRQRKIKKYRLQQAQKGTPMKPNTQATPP

Row | Binder | binding result [1] | binding result [2]
1 | YKSMKKTTMKIIPFNRLTIF (Synthetic peptide) [Peptide 2 (P2), YKSMKKTTMKIIPFNRLTIF] | binds | –
2 | B1 | – | binds
